Reference: patent US20220267458A1 (Innovent, published 2022)
Residue numbers refer to the chain shown, from its start.

T1: human GITR-His (human, UniProt Q9Y5U5 26-161)
T1 construct: Bought from Acro biosystems; also called GITR-His (Acro biosystems); antigen GITR-His
T1 sequence: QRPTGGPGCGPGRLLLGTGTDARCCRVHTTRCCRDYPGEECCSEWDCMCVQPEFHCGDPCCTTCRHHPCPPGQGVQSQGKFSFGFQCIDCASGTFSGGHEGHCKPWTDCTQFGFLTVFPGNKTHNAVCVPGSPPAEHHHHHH

T2: human GITR overexpressed on CHO cells (CHO-GITR) (human, UniProt Q9Y5U5 26-241)
T2 construct: whole, on cells; also called cell surface GITR protein; antigen expressed on the cell surface
T2 sequence (looked up): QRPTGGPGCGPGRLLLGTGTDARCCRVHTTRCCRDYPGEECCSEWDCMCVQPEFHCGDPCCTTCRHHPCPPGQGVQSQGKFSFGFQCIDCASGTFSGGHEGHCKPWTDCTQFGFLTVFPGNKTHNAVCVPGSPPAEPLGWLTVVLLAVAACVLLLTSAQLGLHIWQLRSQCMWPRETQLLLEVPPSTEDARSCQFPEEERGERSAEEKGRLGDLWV

B1: hcIgG-20 (antibody, V domains shown)
VH: QVQLQESGGGSVQAGGSLRLSCASSGYSRTSRWMAWFRQAPGKEREGVAAIYTGGSSTLYANSMADRVTISQDNAKNTVYLRMNNLKPEDTAMYYCAADKLAGDFWLVDRWRAWGQGTQVTVSS
notes: also called heavy-chain antibody of Nb-20
B2: hcIgG-03 (antibody, V domains shown)
VH: QVQLQESGGGSVQAGGSLRLSCAASGYTYSGYCMGWFRQAPGKEHEGVASIVSGLGRPYYADSVKGRFTISQDNAKNTVYLQMNSLKPEDTAMYYCAAEWATKLCSEIPATEWDYWGQGTQVTVSS
notes: also called heavy-chain antibody of Nb-03
B3: hcIgG-16 (antibody, V domains shown)
VH: QVQLQESGGGSVQAGGSLRLSCAASGYTYNKYSWGWFRQAPGKEREGVAGIDSDGSTSYADSVKGRFTISKDNTKNTLYLQMNSLKPEDTAMYYCAASDWVSAIQALGVLAVRPYEYWGQGTQVTVSS
notes: also called heavy-chain antibody of Nb-16
B4: hcIgG-07 (antibody, V domains shown)
VH: QVQLQESGGGLVQAGGSLKLSCTVSGFAFGSSHMSWVRRAPGKGLEWVSTIHSGGGFGDYANSVQGRFTISRDVAKNTLYLQMNSLKPEDTAIYYCALATDWRKPPGQGTQVTVSS
notes: also called heavy-chain antibody of Nb-07
B5: hcIgG-10 (antibody, V domains shown)
VH: B4 VH with A14P, K19R, T23A, V24A
notes: also called heavy-chain antibody of Nb-10
B6: hcIgG-09 (antibody, V domains shown)
VH: QVQLQESGGGLVQPGGSLRLSCGASGFTFSSTAMWWFRQAPGKGLEWVSSITSDVSGTYYADSVQGRFTISRDNGKNTVYLQMNSLRSEDTALYYCATSCGFSGGTWSCKYRGQGTQVTVSS
notes: also called heavy-chain antibody of Nb-09
B7: HzhcIgG-20 (antibody, V domains shown)
VH: QVQLQESGGGLVQPGGSLRLSCAASGYSRTSRWMAWFRQAPGKGLEGVAAIYTGGSSTLYADSVKGRFTISRDNAKNSVYLQMNSLRAEDTAVYYCAADKLAGDFWLVDRWRAWGQGTLVTVSS
notes: Humanized heavy-chain antibody without light chain; also called humanized hcIgG-20; humanized HcIgG

molecular target: T1, human GITR-His; assay: ForteBio BLI, antibody on AHQ tip, human GITR-His 100 nM in solution, 1:1 model
Description: (§1) (2) Experimental procedure: 100 μl of SD buffer and antibodies (hcIgG-02, hcIgG-03, hcIgG-04, hcIgG-07, hcIgG-09, hcIgG-10, hcIgG-16 and hcIgG-20, control antibody), GITR-His (Acro biosystems) were added to a 96-well half-volume black polystyrene microplate. The plate was arranged according to the positions of the samples, the position of the sensor was selected, and the operation procedures were set as: Baseline, Loading ˜1 nm, Baseline, Association and Dissociation, each running for a time depending on the binding and dissociation rates of the sample, at a rotation speed of 400 rpm and a temperature of 30° C.
(3) A 1:1 binding model was adopted for kinetic analysis.

| Kd [nM] | koff [s⁻¹] | kon [M⁻¹ s⁻¹] | Binder |
| --- | --- | --- | --- |
| 1.85 | 0.000646 | 349000 | B1 |
| 5.3 | 0.00172 | 324000 | B2 |
| 9.81 | 0.00114 | 117000 | B3 |
| 4.08 | 0.00099 | 243000 | B4 |
| 3.22 | 0.000742 | 231000 | B5 |
| 1.89 | 0.000487 | 257000 | B6 |

molecular target: GITR protein overexpressed on Hela cells (Hela-GITR-NF-κB-Luc-Rep); assay: cell-based or functional assay

| EC50 for the activation (NF-κB luciferase reporter) [nM] | Binder |
| --- | --- |
| 0.689 | B1 |
| 0.663 | B7 |

molecular target: T2, human GITR overexpressed on CHO cells …; assay: flow cytometry on CHO-GITR cells, PE anti-human Fc detection, MFI

| EC50 (read off the curve) [nM] | Binder |
| --- | --- |
| ~2 | B1 |
| ~2 | B7 |

molecular target: T2, human GITR overexpressed on CHO cells …; assay: flow cytometry on CHO-GITR cells, PE anti-human Fc detection, MFI; direct binding titration, the table row is labelled IC50, nM is taken from the concentration axis
Description: (1) Cell preparation: The pCHO1.0 vector (Invitrogen) carrying human GITR cDNA cloned to a multiple cloning site (MCS) was transfected into Chinese hamster ovary cancer cells (CHO) (Invitrogen) to produce human GITR-overexpressing CHO cells (CHO-GITR), the CHO cells (CHO-GITR) overexpressing human GITR on the surface thereof were counted, and diluted to 1×10⁶ cells/mL, and added to a U-bottom 96-well plate with 100 μL/well.
(1) Detection: The cell suspension was centrifuged at 400 g for 5 min to remove the cell medium. Serial dilutions of the sample were added to a U-shaped plate, and then the cells were resuspended and added to the plate with 100 μL/well. The plate was put onto the ice to stand for 30 min The cell suspension was centrifuged at 400 g for 5 min, and the supernatant was discarded. The cells were washed once with PBS, and then centrifuged at 400 g for 5 min to remove PBS. 100 μL of the solution of PE-conjugated anti-human Fc antibody (Jackson Immuno Research) diluted at a ratio of 1:200 was added to each well, and the cells were incubated in dark on the ice for 30 min The cell suspension was centrifuged at 400 g for 5 min, and the supernatant was discarded. The cells were washed once with PBS. The cells were resuspended with 100 μL of PBS.

| IC50 [nM] | Binder |
| --- | --- |
| 0.511 | B1 |
| 102 | B2 |
| 34.1 | B3 |
| 1.44 | B4 |
| 1.47 | B5 |
| 4.89 | B6 |

molecular target: T1, human GITR-His; assay: ForteBio BLI, antibody on AHQ tip, human GITR-His 100 nM in solution
Description: as §1
In this experiment, binding kinetics and affinity for the antibody hcIgG-20 before humanization and the antibody HzhcIgG-20 after humanization were determined using the ForteBio method in the same way as in Example 3. ForteBio results are listed in Table 4. hcIgG-20 and HzhcIgG-20 retain the binding ability to GITRs, and the affinity is higher than the control antibody TRX518.

| Kd [nM] | koff [s⁻¹] | kon [M⁻¹ s⁻¹] | Binder |
| --- | --- | --- | --- |
| 4.35 | 0.000917 | 211000 | B1 |
| 4 | 0.00128 | 321000 | B7 |
